Values quoted from earlier work as cited in PMC11128129.

Target: PCSK9 (Homo sapiens) (UniProt Q8NBP7)
Sequence (Q8NBP7 153-692): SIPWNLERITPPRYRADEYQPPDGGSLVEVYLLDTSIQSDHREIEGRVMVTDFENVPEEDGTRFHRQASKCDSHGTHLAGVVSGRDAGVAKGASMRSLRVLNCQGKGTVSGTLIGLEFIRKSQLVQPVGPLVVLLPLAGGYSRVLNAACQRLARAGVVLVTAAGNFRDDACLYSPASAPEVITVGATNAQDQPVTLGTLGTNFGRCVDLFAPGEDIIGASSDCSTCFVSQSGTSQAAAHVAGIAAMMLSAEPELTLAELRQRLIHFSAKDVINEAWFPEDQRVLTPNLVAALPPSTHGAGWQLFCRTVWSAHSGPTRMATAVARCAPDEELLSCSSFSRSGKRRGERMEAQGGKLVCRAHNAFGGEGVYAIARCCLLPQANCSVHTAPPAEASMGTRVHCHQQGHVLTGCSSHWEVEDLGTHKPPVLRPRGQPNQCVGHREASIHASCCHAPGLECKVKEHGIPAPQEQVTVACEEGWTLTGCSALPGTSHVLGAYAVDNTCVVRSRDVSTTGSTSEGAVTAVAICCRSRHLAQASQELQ

In the case of LDLR (from UniProt P01130), the Kd is listed as 719 nM.
